Where two headings read alike, the source gives them in different places.

These results are taken from patent US20140170149A1 (Genmab, published 2014).

Assay [1] deals with T1, human CD3 protein complex (human, UniProt P07766 23-207; P09693 23-182; P04234 22-171; P20963 22-164).
T1 construct: whole, on cells; also called CD3 on Jurkat cells
Kind of assay: flow cytometry on Jurkat cells (CD3-expressing T cell line), MFI (PE) (Example 21). A general note: Flow cytometry measures light scatter and fluorescence of single cells or particles in a stream.

For assay [2], the target named is T2, human epidermal growth factor receptor 2 (HER2) (human, UniProt P04626 23-1255).
T2 construct: whole, on cells; One entry for endogenous HER2 on tumor cell lines and for the fully human construct hu-HER2 on CHO-S cells; also called ErbB-2; hu-HER2
Kind of assay: flow cytometry on A431 cells (low HER2), PE-goat anti-human IgG, MFI; EC50 by non-linear regression (Example 12).
Description: (§1) Binding of HER2 antibodies was detected using a Phycoerythrin (PE)-conjugated goat-anti-human IgG antibody (Jackson). […] EC₅₀ values were determined by means of non-linear regression (sigmoidal dose-response with variable slope) using GraphPad Prism V4.03 software (GraphPad Software, San Diego, Calif., USA).

Assay [3] has as its target T2, human epidermal growth factor receptor …. In words: cell-based or functional assay.
Assay [4] shares this target. In words: flow cytometry on AU565 cells (high HER2), PE-goat anti-human IgG, MFI; EC50 by non-linear regression (Example 12).
Description: as §1
Assay [5] shares this target. In words: flow cytometry on CHO-S cells transiently transfected with hu-HER2, PE-goat anti-human IgG, MFI (Example 24).
For assay [6], the target named is T1, human CD3 protein complex. In words: flow cytometry on Jurkat cells (CD3-expressing T cell line), MFI (PE) (Example 21). The source holds these as a separate data set.
For assay [7], the target named is T1, human CD3 protein complex. The assay is described as above. The source holds these as a separate data set.

T1 sequence (P07766 23-207, form in doubt, chain 1 of 4): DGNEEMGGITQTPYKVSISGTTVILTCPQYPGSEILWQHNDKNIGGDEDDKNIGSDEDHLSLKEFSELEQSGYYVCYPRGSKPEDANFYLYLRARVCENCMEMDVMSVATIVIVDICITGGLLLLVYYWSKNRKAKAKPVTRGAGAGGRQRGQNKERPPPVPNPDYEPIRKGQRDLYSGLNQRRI
T1 sequence (P09693 23-182, form in doubt, chain 2 of 4): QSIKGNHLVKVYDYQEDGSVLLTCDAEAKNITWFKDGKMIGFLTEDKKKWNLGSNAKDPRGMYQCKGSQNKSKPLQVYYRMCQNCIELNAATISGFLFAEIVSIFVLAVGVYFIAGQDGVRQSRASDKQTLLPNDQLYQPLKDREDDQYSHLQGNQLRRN
T1 sequence (P04234 22-171, form in doubt, chain 3 of 4): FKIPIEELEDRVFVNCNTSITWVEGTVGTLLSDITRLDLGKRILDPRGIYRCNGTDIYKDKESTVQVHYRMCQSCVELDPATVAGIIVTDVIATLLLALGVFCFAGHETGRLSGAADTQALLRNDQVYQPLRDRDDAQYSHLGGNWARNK
T1 sequence (P20963 22-164, form in doubt, chain 4 of 4): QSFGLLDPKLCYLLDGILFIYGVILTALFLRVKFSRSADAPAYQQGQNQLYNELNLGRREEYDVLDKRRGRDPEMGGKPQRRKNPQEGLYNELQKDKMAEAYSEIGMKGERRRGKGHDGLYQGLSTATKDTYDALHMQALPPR

B1: IgG1-hu-CLB-T3/4-F405L (antibody, V domains shown)
VH: EVQLVESGGGLVKPGGSLRLSCAASGFTFSSYGMFWVRQAPGKGLEWVATISRYSRYIYYPDSVKGRFTISRDNAKNSLYLQMNSLRAEDTAVYYCARRPLYGSSPDYWGQGTLVTVSS
VL: EIVLTQSPATLSLSPGERATLSCSASSSVTYVHWYQQKPGQAPRLLIYDTSKLASGIPARFSGSGSGTDFTLTISSLEPEDFAVYYCFQGSGYPLTFGSGTKLEMR
notes: Expressed as IgG1,κ with F405L
B1: the EC50 (read off the curve) (usually the concentration giving half of the maximal effect) in assay [1] is approximately 0.03 µg/mL.

B2: IgG1-hu-CLB-T3/4-F405L × IgG1-HER2-169-K409R (bispecific antibody)
heavy 1: not shown
VL 1: EIVLTQSPATLSLSPGERATLSCRASQSVSSYLAWYQQKPGQAPRLLIYDASNRATGIPARFSGSGSGTDFTLTISSLEPEDFAVYYCQQRSNWPRTFGQGTKVEIK
heavy 2: not shown
VL 2: EIVLTQSPATLSLSPGERATLSCSASSSVTYVHWYQQKPGQAPRLLIYDTSKLASGIPARFSGSGSGTDFTLTISSLEPEDFAVYYCFQGSGYPLTFGSGTKLEMR
notes: Made by 2-MEA-induced Fab-arm exchange; IgG1,κ
Consider B2, for which the “EC50 (read off the curve)” value in assay [1] is approximately 0.2 µg/mL.

B3: huCLB-T3/4-F405L x b12-K409R (bispecific antibody)
heavy chain, CD3 arm (huCLB-T3/4, IgG1-F405L): not shown
light chain, CD3 arm: EIVLTQSPATLSLSPGERATLSCSASSSVTYVHWYQQKPGQAPRLLIYDTSKLASGIPARFSGSGSGTDFTLTISSLEPEDFAVYYCFQGSGYPLTFGSGTKLEMR
heavy chain, b12 arm (IgG1-K409R): not shown
light chain, b12 arm: EIVLTQSPGTLSLSPGERATFSCRSSHSIRSRRVAWYQHKPGQAPRLVIHGVSNRASGISDRFSGSGSGTDFTLTITRVEPEDFALYYCQVYGASSYTFGQGTKLERK
notes: also called huCLB-T3/4 x b12; CD3xb12 control
For the molecule B3, in assay [1], the “EC50 (read off the curve)” value is approximately 0.2 µg/mL.

B4: HER2 HuMab 153 (antibody, V domains shown)
VH: QVQLVESGGGVVQPGRSLRLSCAASGFTFSDYVIHWVRQAPGKGLEWVTVISYDGSNKYYADSVKGRFTISRDNSKNTLYLQMNSLSAEDTAMYYCARGGITGTTGVFDYWGQGTLVTVSS
VL: DIQMTQSPSSLSASVGDRVTITCRASQGISSWLAWYQQKPEKAPKSLIYDASSLQSGVPSRFSGSGYGTDFSLTISSLQPEDFAIYYCQQYKSYPITFGQGTRLEIK
notes: also called PC1014-153; TH1014-153
On to B4, for which the EC50 (usually the midpoint of the concentration-response curve) in assay [2] was found to be 0.244 µg/mL. In addition, in assay [3], the “EC50, fab-CypHer5E internalization assay, AU565 cells” value is approximately 0.0149 µg/mL and the “Maximal MFI, fab-CypHer5E internalization assay, AU565 cells” value worked out at 87500 MFI. In addition, a half-maximal effect in assay [4] (EC50) was put at 0.626 µg/mL. Also, the “EC50 (read off the curve)” value in assay [5] was approximately 0.04 µg/mL.

B5: IgG1-huOKT3-F405L × IgG1-HER2-153-K409R (bispecific antibody)
heavy 1: not shown
VL 1: DIQMTQSPSSLSASVGDRVTITCRASQGISSWLAWYQQKPEKAPKSLIYDASSLQSGVPSRFSGSGYGTDFSLTISSLQPEDFAIYYCQQYKSYPITFGQGTRLEIK
heavy 2: not shown
VL 2: DIQMTQSPSSLSASVGDRVTITCSASSSVSYMNWYQQTPGKAPKRWIYDTSKLASGVPSRFSGSGSGTDYTFTISSLQPEDIATYYCQQWSSNPFTFGQGTKLQIT
notes: Made by 2-MEA-induced Fab-arm exchange; IgG1,κ; also called huOKT3×153
As for B5, the concentration giving a half-maximal response (EC50 (read off the curve)) in assay [6] was approximately 2 µg/mL.

B6: IgG1-HUM291-F405L × IgG1-HER2-153-K409R (bispecific antibody)
heavy 1: not shown
VL 1: DIQMTQSPSSLSASVGDRVTITCRASQGISSWLAWYQQKPEKAPKSLIYDASSLQSGVPSRFSGSGYGTDFSLTISSLQPEDFAIYYCQQYKSYPITFGQGTRLEIK
heavy 2: not shown
VL 2: DIQMTQSPSSLSASVGDRVTITCSASSSVSYMNWYQQKPGKAPKRLIYDTSKLASGVPSRFSGSGSGTDFTLTISSLQPEDFATYYCQQWSSNPPTFGGGTKVEIK
notes: Made by 2-MEA-induced Fab-arm exchange; IgG1,κ; also called HUM291×153
As to B6, the “EC50 (read off the curve)” value in assay [7] is approximately 2 µg/mL.

B7: IgG1-hu-CLB-T3/4-F405L × IgG1-HER2-153-K409R (bispecific antibody)
heavy 1: not shown
VL 1: DIQMTQSPSSLSASVGDRVTITCRASQGISSWLAWYQQKPEKAPKSLIYDASSLQSGVPSRFSGSGYGTDFSLTISSLQPEDFAIYYCQQYKSYPITFGQGTRLEIK
heavy 2: not shown
VL 2: EIVLTQSPATLSLSPGERATLSCSASSSVTYVHWYQQKPGQAPRLLIYDTSKLASGIPARFSGSGSGTDFTLTISSLEPEDFAVYYCFQGSGYPLTFGSGTKLEMR
notes: Made by 2-MEA-induced Fab-arm exchange; IgG1,κ; also called huCLB-T3/4×HER2 153
As for B7, in assay [1], the “EC50 (read off the curve)” value was approximately 0.2 µg/mL.

B8: IgG1-huOKT3-F405L (antibody, V domains shown)
VH: QVQLVQSGGGVVQPGRSLRLSCKASGYTFTRYTMHWVRQAPGKGLEWIGYINPSRGYTNYNQKVKDRFTISRDNSKNTAFLQMDSLRPEDTGVYFCARYYDDHYSLDYWGQGTPVTVSS
VL: DIQMTQSPSSLSASVGDRVTITCSASSSVSYMNWYQQTPGKAPKRWIYDTSKLASGVPSRFSGSGSGTDYTFTISSLQPEDIATYYCQQWSSNPFTFGQGTKLQIT
notes: Expressed as IgG1,κ with F405L; also called huOKT3-C114S-gLC; IgG1-OKT3
As for B8, in assay [6], the half-maximal effective concentration (EC50 (read off the curve)) is approximately 0.02 µg/mL.

B9: huOKT3-F405L x b12-K409R (bispecific antibody)
heavy chain, CD3 arm (huOKT3-C114S-gLC, IgG1-F405L): not shown
light chain, CD3 arm: DIQMTQSPSSLSASVGDRVTITCSASSSVSYMNWYQQTPGKAPKRWIYDTSKLASGVPSRFSGSGSGTDYTFTISSLQPEDIATYYCQQWSSNPFTFGQGTKLQIT
heavy chain, b12 arm (IgG1-K409R): not shown
light chain, b12 arm: EIVLTQSPGTLSLSPGERATFSCRSSHSIRSRRVAWYQHKPGQAPRLVIHGVSNRASGISDRFSGSGSGTDFTLTITRVEPEDFALYYCQVYGASSYTFGQGTKLERK
notes: also called huOKT3 x b12; CD3xb12 control
For the molecule B9, the “EC50 (read off the curve)” value in assay [6] was approximately 3 µg/mL.

B10: IgG1-HUM291-F405L (antibody, V domains shown)
VH: QVQLVQSGAEVKKPGASVKVSCKASGYTFISYTMHWVRQAPGQGLEWMGYINPRSGYTHYNQKLKDKATLTADKSASTAYMELSSLRSEDTAVYYCARSAYYDYDGFAYWGQGTLVTVSS
VL: DIQMTQSPSSLSASVGDRVTITCSASSSVSYMNWYQQKPGKAPKRLIYDTSKLASGVPSRFSGSGSGTDFTLTISSLQPEDFATYYCQQWSSNPPTFGGGTKVEIK
notes: Expressed as IgG1,κ with F405L; also called visilizumab
Consider B10, for which the “EC50 (read off the curve)” value in assay [7] was approximately 0.02 µg/mL.
